{"source": "patent US20100322948A1", "about": "“Bone morphogenetic protein (BMP)-binding domains of proteins of the repulsive guidance molecule (RGM) protein family and functional fragments thereof, and use of same” (ABBOTT GMBH & CO. KG, priority 2007, published 2010)", "molecules": {"B1": {"name": "fragment #786: Fc fusion protein of human RGM A amino acids 47-168 (protein)", "chain": "PCKILKCNSEFWSATSGSHAPASDDTPEFCAALRSYALCTRRTARTCRGDLAYHSAVHGIEDLMSQHNCSKDGPTSQPRLRTLPPAGDSQERSDSPEICHYEKSFHKHSATPNYTHCGLFGD", "modifications": "left off: small tags and cut ends; a dimerising Fc or GST"}}, "key": {"BMP-4 [1]": {"molecular_target": "T1, BMP-4 (Homo sapiens, UniProt P12644)", "T1 construct": "purchased R&D Systems 314-BM", "T1 sequence (P12644 293-408)": "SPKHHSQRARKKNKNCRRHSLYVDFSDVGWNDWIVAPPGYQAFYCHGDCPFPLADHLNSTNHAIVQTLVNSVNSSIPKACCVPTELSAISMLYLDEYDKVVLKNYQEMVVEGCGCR", "assay": "In vitro interaction test, variant B: immobilized RGMA-Fc fusion proteins, detection of BMP-4 binding", "method": "(§1) Test Method 4: In Vitro Interaction Test for Determining the Interaction between RGMA and BMP-2 and -4\n(§2) The interaction tests were carried out as described below:\nVariant B: Immobilization of Various RGMA-Fc Fusion Proteins and Detection of the Binding of the BMP-2/ or -4 Protein\nImmunoplate Cert. MaxiSorp F96 (Nunc, 439454)\nRGMA-Fc fragments • Volume used: 2.5 μg/mL in Na2CO3; addition: 50 μL per well • 1 hour at 37° C. in damp chamber\n3. Washing step: • Wash 3× with PBS/0.02% Tween 20\n4. Blocking: • 3% BSA in PBS/0.02% Tween, 1 hour at 37° C. in damp chamber • Addition : 200 μL per well, incubation: 1 hour at 37° C. in damp chamber\nRecombinant human BMP-2, Catalog No.: 355-BM, Company: R&D Systems; or\nRecombinant human RGM A, R&D Systems; Prod. #2495-RM,\nrecombinant human BMP-4, Catalog No.: 314-BM, Company: R&D Systems;\nConcentration in each case: 10 μg/mL\nDilution steps: in each case 1:2 with PBS/0.02% Tween 20\n(§3) 6. Washing step: • Wash 3× with PBS/0.02% Tween 20\nAnti-human BMP-4 biotin antibody; Catalog No.: BAM7572, 1:200 in 1% BSA-PBS-T\n8. Washing step: • Wash 3× with PBS/0.02% Tween 20\n10. Washing step: • Wash 3× with PBS/0.02% Tween 20\nImmunoPure TMB substrate kit; (Pierce, #34021) • Development period: approximately 1-30 minutes • 1:1 mixture of […]; addition: 50 μL per well\n12. Stop: • 2.5 M H2SO4; addition: 50 μL per well\nThe test was conducted according to test method 4, variant B above, with immobilization of the fusion proteins (1 mg/mL). The binding of BMP-4 was detected using anti-BMP-4 biotin antibodies.\nThe test was conducted according to test method 4, variant B above, with immobilization of the fusion proteins (1 mg/mL). The binding of BMP-4 and -2 was detected using anti-BMP-4 and anti-BMP-2 biotin antibodies, respectively."}, "BMP-4 [2]": {"molecular_target": "T1, BMP-4", "assay": "In vitro interaction test, variant A: immobilized BMP-4, detection of binding of RGMA-Fc fusion proteins", "conditions": "Working Example 3, FIG. 5", "method": "as §1, §2\nVariant A: Immobilization of the BMP-2/ or -4 Protein and Detection of the Binding of Various RGMA-Fc Fusion Proteins\n1. Plate: • Immunoplate Cert. MaxiSorp F96 (Nunc, 439454)\nRecombinant human BMP-2, Catalog No.: 355-BM, Company: R&D Systems; Recombinant human RGM A, R&D Systems; Prod. #2495-RM, or\nRecombinant human BMP-4, Catalog No.: 314-BM, Company: R&D Systems; • Concentration: 10 μg/mL • Volume used: 2.5 μg/mL in Na2CO3; addition: 50 μL per well • 1 hour at 37° C. in damp chamber\n3. Washing step: • Wash 3× with PBS/[…] Tween 20\n4. Blocking: • 3% BSA in PBS/0.02% Tween, 1 hour at 37° C. in damp chamber; addition: 200 μL per well\nRGMA-Fc fragments, • 1 μg/mL initial concentration, then dilution down to 1:2 using PBS/0.02% Tween20 • […] • 1 hour at 37° C. in damp chamber\nas §3\nBiotin anti-human Fc (R&D-Systems), Catalog No.: 709065; 1 mg/mL; • 1:200 in 0.6% BAS/PBS-T (0.02% Tween) • Addition: 50 μL per well • 1 hour at 37° C. in damp chamber\n8. Secondary antibody: Strep. POD (Roche); Catalog No.: 11089153001 • 500 U; 1:5000 in 0.6% BAS/PBS-T (0.02% Tween) • Addition: 50 μL per well • 1 hour at 37° C. in damp chamber\n9. Washing step: • Wash 3× with PBS/0.02% Tween 20\nImmunoPure TMB substrate kit; Pierce, #34021 • Development period: approximately 1-30 minutes • 1:1 mixture of […]; addition: 50 μL per well\n11. Stop: • 2.5 M H2SO4; addition: 50 μL per well\nThe test was conducted according to test method 4, variant A above, with immobilization of BMP-4 (1 mg/mL). The binding of the fusion proteins was detected using anti-human-Fc or anti-Myc anti-rabbit (Invitrogen) antibodies.\nThe test was conducted according to test method 4, variant A above, with immobilization of BMP-4 (1 mg/mL). The binding of the fusion proteins was detected using anti-human-antibodies."}}}
{"molecule": "B1", "values": [{"measurement": "binding of BMP-4", "setting": "BMP-4 [1]; Working Example 1, FIG. 3, anti-BMP-4 biotin antibodies", "value": "more significant binding"}, {"measurement": "binding of BMP-4", "setting": "BMP-4 [1]; Working Example 2, FIG. 4, anti-BMP-4 biotin antibodies", "value": "more significant binding"}, {"measurement": "binding to immobilized BMP-4, comparison among fragments", "setting": "BMP-4 [2]", "value": "most strongly"}, {"measurement": "binding to immobilized BMP-4", "setting": "BMP-4 [2]; detection anti-human-Fc or anti-Myc", "value": "Significant concentration-dependent binding"}]}
